The values below come from patent US20240366778A1 (CSPC MEGALITH BIOPHARMARCEUTICAL, published 2024).

First the molecules themselves.
T1: Human Nectin-4 Protein, His Tag (human, UniProt Q96NY8 32-349)
T1 construct: not shown: His tag
T1 sequence (looked up): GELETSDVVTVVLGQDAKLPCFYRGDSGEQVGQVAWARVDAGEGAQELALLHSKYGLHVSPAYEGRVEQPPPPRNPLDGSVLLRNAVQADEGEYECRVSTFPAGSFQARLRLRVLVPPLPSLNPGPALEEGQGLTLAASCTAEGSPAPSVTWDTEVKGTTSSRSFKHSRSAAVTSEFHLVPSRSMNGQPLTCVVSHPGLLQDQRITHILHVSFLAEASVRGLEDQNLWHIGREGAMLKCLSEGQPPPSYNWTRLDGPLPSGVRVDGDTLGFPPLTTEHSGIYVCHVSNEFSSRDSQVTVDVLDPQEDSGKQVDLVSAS

T2: Recombinant Rat Nectin-4 His-tag Protein, CF (rat) (UniProt D3ZET1)
T2 sequence: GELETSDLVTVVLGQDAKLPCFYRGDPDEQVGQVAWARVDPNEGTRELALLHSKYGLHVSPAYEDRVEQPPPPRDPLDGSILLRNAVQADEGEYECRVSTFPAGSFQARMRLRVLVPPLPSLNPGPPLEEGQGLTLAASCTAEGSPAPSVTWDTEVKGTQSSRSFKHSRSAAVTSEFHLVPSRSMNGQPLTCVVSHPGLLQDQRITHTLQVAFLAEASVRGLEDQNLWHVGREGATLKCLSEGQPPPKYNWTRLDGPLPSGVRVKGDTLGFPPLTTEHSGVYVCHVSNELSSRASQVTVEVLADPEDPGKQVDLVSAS

T3: Cynomolgus Nectin-4 Protein, His Tag (cynomolgus, UniProt A0A2K5WES1 32-349)
T3 construct: not shown: His tag
T3 sequence: T1 sequence (looked up) with V39A, I230V

T4: Mouse Nectin-4 Protein, His Tag (mouse, UniProt Q8R007 31-347)
T4 construct: not shown: His tag
T4 sequence (looked up): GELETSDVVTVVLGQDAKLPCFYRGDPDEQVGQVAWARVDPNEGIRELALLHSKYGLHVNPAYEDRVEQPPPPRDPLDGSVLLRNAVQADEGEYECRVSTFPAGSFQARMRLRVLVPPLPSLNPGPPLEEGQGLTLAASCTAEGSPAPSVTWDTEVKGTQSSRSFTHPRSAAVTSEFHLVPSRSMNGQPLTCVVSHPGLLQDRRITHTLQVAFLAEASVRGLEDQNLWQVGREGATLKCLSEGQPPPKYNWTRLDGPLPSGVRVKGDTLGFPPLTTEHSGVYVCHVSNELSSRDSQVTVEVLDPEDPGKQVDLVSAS

T5: Recombinant Rat Nectin-4 His-tag Protein, CF (rat, UniProt D3ZET1 31-348)
T5 construct: not shown: His tag
T5 sequence: T2 sequence

B1: Chimeric antibody (antibody, V domains shown)
VH: QVQLQQSGPVLVKPGASVRISCKASGYTFTSYYIHWVKQRPGQGLEWIGWIYPGNVNTKYNENFRDKATLTADKSSSTSYMQLSSLTSEDSAVYFCARGIYYFDYWGQGTTLTVSS
VL: IIVMTQTPKFLLVSAGDRVTITCKASQSVNNDVAWYQEKPGQSPKLLIYYASNRDTGVPDRFTGSGYGTDFTFTISTVQAEDLAVYFCHQDYSSPFTFGSGTKLEIK
notes: also called chimeric anti-Nectin-4 antibody; murine antibody variable regions on human IgG1
B2: humanized antibody SWY2001-Ab3 (antibody, human IgG1, kappa, V domains shown)
VH: QVQLVQSGAEVKKPGASVKVSCKASGYTFTSYYIHWVRQAPGQRLEWMGWIYPGNVNTKYNENFRDRVTITRDTSASTAYMELSSLRSEDTAVYYCARGIYYFDYWGQGTLVTVSS
VL: AIQMTQSPSSLSASVGDRVTITCKASQSVNNDVAWYQQKPGKAPKLLIYYASNRDTGVPSRFSGSGSGTDFTLTISSLQPEDFATYFCHQDYSSPFTFGGGTKVEIKR
notes: Full-length IgG1, kappa
B3: humanized antibody SWY2001-Ab1 (antibody, human IgG1, kappa, V domains shown)
VH: B2 VH
VL: B2 VL with A1I, S9K, S10F, K42Q, A43S, S60D
B4: humanized antibody SWY2001-Ab2 (antibody, human IgG1, kappa, V domains shown)
VH: B2 VH
VL: B2 VL with P80A, F83L, T85V
notes: Full-length IgG1, kappa
B5: PADCEV (antibody, INN chains, looked up, V domains shown)
VH: EVQLVESGGGLVQPGGSLRLSCAASGFTFSSYNMNWVRQAPGKGLEWVSYISSSSSTIYYADSVKGRFTISRDNAKNSLSLQMNSLRDEDTAVYYCARAYYYGMDVWGQGTTVTVSS
VL: DIQMTQSPSSVSASVGDRVTITCRASQGISGWLAWYQQKPGKAPKFLIYAASTLQSGVPSRFSGSGSGTDFTLTISSLQPEDFATYYCQQANSFPPTFGGGTKVEIKR
modifications: vedotin (MMAE) payload

Positions count from the first letter of the chain named.

The target of the first assay is T1, Human Nectin-4 Protein, His Tag. The assay can be described thus: BLI (Fortebio), antibody with human Nectin-4 protein. The procedure: In this experiment, Fortebio was used to detect the affinity of Nectin-4 humanized antibodies to human Nectin-4 protein. After the Nectin-4 protein was incubated with the anti-Nectin-4 antibody sample, the signal value was detected by Fortebio to analyze the affinity of the sample to human Nectin-4. […] The chimeric antibodies were engineered on the basis of mouse-derived antibodies, and the constant region is selected from human IgG1.
Broadly, the Kd is the concentration at which binding is half-saturated. Read a high Kd as a looser complex. Usually koff stands for a measure of how fast the partners let go of each other. A high value points to fast dissociation. As a reminder, the kon is the rate constant with which the complex forms. Lower therefore signals slower complex formation. As for B1, binding was characterised by a dissociation constant (Kd) of 2.8 nM, the dissociation rate constant (koff) was determined as 0.00181 s⁻¹ and the on-rate constant (kon) was 646000 M⁻¹ s⁻¹.

In the case of B2, binding was put at a Kd of 5.08 nM, the dissociation rate constant (koff) is 0.00425 s⁻¹ and the kon stood at 836000 M⁻¹ s⁻¹.

The molecule B3 had a Kd of 5.92 nM, an off-rate (koff) of 0.00447 s⁻¹ and an association rate constant (kon) of 756000 M⁻¹ s⁻¹.

As to B4, binding was put at a Kd of 5.51 nM, the koff is 0.00414 s⁻¹ and the kon worked out at 752000 M⁻¹ s⁻¹.

Another assay concerns the target T2, Recombinant Rat Nectin-4 His-tag Protein, CF (rat). Put plainly: ELISA, Nectin-4 protein with antibody dilutions, goat anti-human IgG secondary antibody. A general note: In an ELISA, binding on a coated surface is turned into a signal by an enzyme label.
Broadly, the EC50 is the concentration at which the effect is half-maximal. B5: the EC50 was determined as 0.00101 µg/mL.

Another assay concerns the target Cynomolgus Nectin-4 Protein, His Tag (cynomolgus). The assay is described as above.
In turn, B5 gave a concentration for a half-maximal effect (EC50) of 0.000968 µg/mL.

For a further assay, the target named is T3, Cynomolgus Nectin-4 Protein, His Tag. Described as above. As to the method:
(§1) The affinities of Nectin-4 humanized antibodies to Nectin-4 proteins of different species were performed by ELISA. Nectin-4 proteins of different species (human Nectin-4, cynomolgus Nectin-4, rat Nectin-4, mouse Nectin-4) were incubated with Nectin-4 humanized antibody samples of different concentrations, and then incubated with the secondary antibody which binds IgG (Goat anti-Human IgG (H+L) Cross-Adsorbed Secondary Antibody. The signal values of different concentrations were detected by ELISA to analyze the affinities of the samples to Nectin-4 proteins of different species. The experimental results are shown in Table 6, showing that the Nectin-4 humanized antibodies have good affinity for human, rat and cynomolgus Nectin-4 proteins.
B2 showed an EC50 of 0.000832 µg/mL.

Take B3: the EC50 was 0.000647 µg/mL.

In turn, B4 came in with a 50% effective concentration (EC50) of 0.000646 µg/mL.

The next assay has as its target T4, Mouse Nectin-4 Protein, His Tag. The assay is described as above. The procedure: as §1
Consider B5, for which the half-maximal effective concentration (EC50) stood at 0.0824 µg/mL.

Regarding B2, the concentration for a half-maximal effect (EC50) turned out to be 2210 µg/mL.

Molecule B4 had an EC50 of 1050 µg/mL.

The next assay addresses T1, Human Nectin-4 Protein, His Tag. Described as above. The procedure:
as §1
On to B5, for which the EC50 was 0.000877 µg/mL.

On to B2, for which the EC50 is 0.00102 µg/mL.

B3 came in with a concentration for a half-maximal effect (EC50) of 0.00121 µg/mL.

In the case of B4, the EC50 came to 0.00113 µg/mL.

The target of a further assay is T5, Recombinant Rat Nectin-4 His-tag …. The description is as above. The procedure:
as §1
As for B2, the EC50 was 0.000942 µg/mL.

Take B3: the EC50 amounted to 0.000857 µg/mL.

As for B4, the EC50 was determined as 0.000726 µg/mL.
